Reference: PMC12363810

Molecular target: proliferating cell nuclear antigen (PCNA), Saccharomyces cerevisiae (Saccharomyces cerevisiae) (UniProt P15873)
Assay: single-molecule correlative force and fluorescence microscopy

UniProt P15873, sequence (P15873 whole entry): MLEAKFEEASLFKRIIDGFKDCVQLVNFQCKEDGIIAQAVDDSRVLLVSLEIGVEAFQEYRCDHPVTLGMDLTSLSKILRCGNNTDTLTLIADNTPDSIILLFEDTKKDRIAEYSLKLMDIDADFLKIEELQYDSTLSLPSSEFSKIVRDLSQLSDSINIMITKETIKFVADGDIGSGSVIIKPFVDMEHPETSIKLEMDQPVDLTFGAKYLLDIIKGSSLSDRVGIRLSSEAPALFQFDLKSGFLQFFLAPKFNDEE

With “replication factor C (RFC), Saccharomyces cerevisiae, full-length (from UniProt P38630 1-861) (complex)” the tethers with RFC along the path of fill-in together with PCNA (of 14 tethers) was 9.
